Paper PMC10491252 (bioRxiv, 2023)
Changes are numbered by the printed parent chain. Numbers in names are those of the source. Where “and” joins values, the source holds several entries; their conditions need not be identical. Identical values can stand only once.

Tests used:
[1] = molecular target: ERFE CLR*ΔC1Q (human) (UniProt Q4G0M1); test: AUC
[2] = molecular target: bone morphogenetic protein 6 (BMP6) (UniProt P22004)
[3] = molecular target: ERFE CLR*ΔC1Q (human) (UniProt Q4G0M1); test: non-reducing SDS-PAGE
[4] = molecular target: ERFE CLR* (center PGP of the collagen-like repeat mutated to SSS) (human) (UniProt Q4G0M1); test: AUC
[5] = molecular target: ERFE CLR* (center PGP of the collagen-like repeat mutated to SSS) (human) (UniProt Q4G0M1); test: non-reducing SDS-PAGE
[6] = molecular target: bone morphogenetic protein 6 (BMP6) (UniProt P22004); remark: listed apart in the source
[7] = molecular target: T1, bone morphogenetic protein 6 (BMP6) (UniProt P22004 375-513); test: cell-based or functional assay
T1 sequence: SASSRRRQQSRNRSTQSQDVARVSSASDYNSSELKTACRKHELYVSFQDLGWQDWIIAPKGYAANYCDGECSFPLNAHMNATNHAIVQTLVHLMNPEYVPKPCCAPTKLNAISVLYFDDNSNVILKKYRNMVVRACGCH

[8] = molecular target: the molecule itself; test: AUC
[9] = molecular target: T1, bone morphogenetic protein 6 (BMP6); test: cell-based or functional assay; remark: listed apart in the source
[10] = molecular target: bone morphogenetic protein 2 (BMP2) (UniProt P12643 283-396); test: cell-based or functional assay
[11] = molecular target: T2, growth differentiation factor 5 (GDF5) (UniProt P43026 382-501); test: cell-based or functional assay
T2 sequence: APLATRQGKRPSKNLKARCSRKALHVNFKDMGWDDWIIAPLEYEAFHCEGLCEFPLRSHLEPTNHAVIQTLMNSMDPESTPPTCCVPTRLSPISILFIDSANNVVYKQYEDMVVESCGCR

[12] = molecular target: T3, bone morphogenetic protein 7 (BMP7) (UniProt P18075 293-431); test: cell-based or functional assay
T3 sequence: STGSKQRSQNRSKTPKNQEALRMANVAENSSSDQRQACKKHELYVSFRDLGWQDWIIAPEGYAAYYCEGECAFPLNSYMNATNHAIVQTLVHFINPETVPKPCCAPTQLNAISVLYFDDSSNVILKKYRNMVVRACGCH

[13] = molecular target: the molecule itself; test: AUC; remark: listed apart in the source
[14] = molecular target: the molecule itself; test: non-reducing SDS-PAGE

bone morphogenetic protein 2 (BMP2), sequence (P12643 283-396): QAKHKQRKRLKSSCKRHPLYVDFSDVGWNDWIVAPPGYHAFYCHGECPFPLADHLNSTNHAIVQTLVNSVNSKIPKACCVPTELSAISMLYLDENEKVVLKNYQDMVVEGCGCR

## ERFE CLR*ΔC1Q (from UniProt Q4G0M1 44-207) (domain or fragment)
[1]
  percent of the protein as dimer: 38%
  percent of the protein as monomer: 61%
  stoichiometry N: 2
[2]
  IC50 of inhibition of 2.5nM BMP6, luciferase reporter in BRITER cells: 27 nM
[3]
  stoichiometry N: 2

## ERFE CLR* (center PGP of the collagen-like repeat mutated to SSS) (from UniProt Q4G0M1 44-354) (natural protein)
[4]
  stoichiometry N: 3
[2]
  IC50 of inhibition of 2.5nM BMP6, luciferase reporter in BRITER cells: 6.1 nM
[5]
  stoichiometry N: 2

B1: ERFE D90A (natural protein)
chain: PPPGNELPRGPGESRAGPAARPPEPTAERAHSVDPRDAWMLFVRQSAKGVNGKKRSRGKAKKLKFGLPGPPGPPGPQGPPGPIIPPEALLKEFQLLLKGAVRQRERAEPEPCTCGPAGPVAASLAPVSATAGEDDDDVVGDVLALLAAPLAPGPRAPRVEAAFLCRLRRDALVERRALHELGVYYLPDAEGAFRRGPGLNLTSGQYRAPVAGFYALAATLHVALGEPPRRGPPRPRDHLRLLICIQSRCQRNASLEAIMGLESSSELFTISVNGVLYLQMGQWTSVFLDNASGCSLTVRSGSHFSAVLLGV
[6]
  IC50 of inhibition of BMP6, luciferase reporter in BRITER cells: 13 nM

B2: ERFE N94A (natural protein)
chain: B1 chain with A47D, N51A
[6]
  IC50 of inhibition of BMP6, luciferase reporter in BRITER cells: 21 nM

B3: ERFE Cys* (Cys155, 157 and 208 mutated to serines) (natural protein)
chain: B1 chain with A47D, C112S, C114S, C165S
[7]
  IC50 of inhibition of 2.5nM BMP6, luciferase reporter in BRITER cells: 8.7 nM
[8]
  stoichiometry N: 3

B4: erythroferrone (ERFE), wild type, N-terminally flag-tagged hERFE residues 44-354 (natural protein)
chain: B1 chain with A47D
[8]
  stoichiometry N: 3 and 6
[9]
  IC50 of ERFE inhibition of 2.5nM BMP6, BRE-luciferase reporter in BRITER cells: 5.2 nM
[10]
  IC50 of ERFE inhibition of 2.5nM BMP2, BRE-luciferase reporter in BRITER cells: 170 nM
[11]
  IC50 of ERFE inhibition of 2.5nM GDF5, BRE-luciferase reporter in BRITER cells: 130 nM
[12]
  IC50 of ERFE inhibition of 2.5nM BMP7, BRE-luciferase reporter in BRITER cells: 8.9 nM

B5: ERFE ΔC1Q (stop codon at C208, entire C1Q domain removed) (domain or fragment)
chain: PPPGNELPRGPGESRAGPAARPPEPTAERAHSVDPRDAWMLFVRQSDKGVNGKKRSRGKAKKLKFGLPGPPGPPGPQGPPGPIIPPEALLKEFQLLLKGAVRQRERAEPEPCTCGPAGPVAASLAPVSATAGEDDDDVVGDVLALLAAPLAPGPRAPRVEAAFL
[13]
  stoichiometry N: 3
[7]
  IC50 of inhibition of 2.5nM BMP6, luciferase reporter in BRITER cells: 7.8 nM
[14]
  stoichiometry N: 2

B6: ERFE Cys*ΔC1Q (domain or fragment)
chain: B5 chain with C112S, C114S
[13]
  stoichiometry N: 3
[7]
  IC50 of inhibition of 2.5nM BMP6, luciferase reporter in BRITER cells: 97 nM
